# Reference: PMC9389230, “Connective tissue growth factor-targeting DNA aptamer suppresses pannus formation as diagnostics and therapeutics for rheumatoid arthritis”
# Experiments:
# [1] = target: murine CTGF (SPR) (mouse, UniProt P29268 26-348); assay: SPR; SPR: PBS running buffer, CTGF on CM5 chip, aptamer 9.375-600 nM, 10 ul/min (SA chip with biotinylated aptamer for cytokines and CTGF deletion mutants); dot blot: nitrocellulose, 10% BSA block, 1 uM biotinylated aptamer, room temperature; pH not stated; details: protein: recombinant; label: biotin or Cy5 depending on assay
# [2] = target: CTGF (CCN2) (UniProt P29279 27-349); assay: as above; details: protein: commercial; label: biotin or Cy5 depending on assay
# CTGF (CCN2), sequence (P29279 27-349): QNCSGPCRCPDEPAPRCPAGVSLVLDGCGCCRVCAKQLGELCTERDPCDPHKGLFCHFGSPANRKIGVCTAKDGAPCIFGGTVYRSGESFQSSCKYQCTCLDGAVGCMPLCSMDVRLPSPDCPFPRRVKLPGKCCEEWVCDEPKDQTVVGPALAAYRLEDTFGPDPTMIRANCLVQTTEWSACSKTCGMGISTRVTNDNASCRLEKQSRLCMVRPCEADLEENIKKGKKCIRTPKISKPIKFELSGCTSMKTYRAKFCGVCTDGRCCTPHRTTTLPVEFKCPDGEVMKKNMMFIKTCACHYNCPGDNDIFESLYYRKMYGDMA
# murine CTGF (SPR), sequence (P29268 26-348): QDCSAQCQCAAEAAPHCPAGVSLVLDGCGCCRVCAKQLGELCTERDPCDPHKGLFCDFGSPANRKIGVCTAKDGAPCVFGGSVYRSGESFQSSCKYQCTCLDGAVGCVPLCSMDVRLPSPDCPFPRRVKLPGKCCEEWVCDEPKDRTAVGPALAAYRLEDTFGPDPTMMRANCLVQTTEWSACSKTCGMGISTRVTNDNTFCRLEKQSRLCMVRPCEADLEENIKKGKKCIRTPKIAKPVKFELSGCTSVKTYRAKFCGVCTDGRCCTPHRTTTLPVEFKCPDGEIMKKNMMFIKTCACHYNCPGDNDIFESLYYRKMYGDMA
binder,measurement,setting,value
"AGGCCGGGAGGGTACCCATTGATGGTGTGATGACTGCCT (ssDNA, 3' PEG (high molecular mass)) [AptW2-1-39-PEG]",binding result,[1],binds
same,Kd,[2],7.86 nM
